This is an account of results in patent publication US9658208B2, “Methods and G proteins for screening and identifying ligands of G protein-coupled receptors” (Fred Hutchinson Cancer Research Center, priority 2011, dated 2017).

Where a chain is given by its changes, count along the chain named. Entries after “also recorded” stand apart in the source; their conditions may differ.

Common to all, as to format: cell-based
Assay [1] addresses T1, M2 muscarinic acetylcholine receptor (M2AchR) (Rattus norvegicus, UniProt P10980).
T1 construct: expressed in transfected cells; host or cells: HEK-293
T1 sequence (P10980 1-466): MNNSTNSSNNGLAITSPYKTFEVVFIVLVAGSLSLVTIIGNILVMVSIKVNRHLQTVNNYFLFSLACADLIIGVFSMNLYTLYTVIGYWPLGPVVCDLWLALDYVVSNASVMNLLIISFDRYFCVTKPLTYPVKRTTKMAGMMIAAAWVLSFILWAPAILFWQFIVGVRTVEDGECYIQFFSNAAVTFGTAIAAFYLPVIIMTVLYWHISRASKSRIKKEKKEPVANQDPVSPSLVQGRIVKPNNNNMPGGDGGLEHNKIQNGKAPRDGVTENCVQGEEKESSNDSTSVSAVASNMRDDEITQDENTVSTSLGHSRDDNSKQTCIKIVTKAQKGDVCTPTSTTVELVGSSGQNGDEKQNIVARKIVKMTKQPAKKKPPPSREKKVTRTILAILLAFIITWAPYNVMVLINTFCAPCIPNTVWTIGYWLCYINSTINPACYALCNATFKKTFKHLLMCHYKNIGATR
The assay can be described thus: CRE-SEAP reporter gene assay, coupling of Gαs-based chimeric G proteins with M2AchR (transient). The following applies: 10 uM acetylcholine; for increase in SEAP activity: HEK-293 cells cotransfected with chimera, M2AchR and CRE-SEAP. The protocol: The constructs encoding chimeric G proteins were made by substituting C-terminal amino acids of Gαs (SEQ ID NO: 1) with the corresponding C-terminal amino acid sequences of other Gα subunits. A first set of Gαs-based chimeric G proteins was prepared by designing constructs encoding seven Gαs-Gαi chimeras in which the C-terminal 5, 11, 13, 28, 65, 84, or 131 amino acids of Gαs were substituted with the corresponding C-terminal amino acids from the […]. Briefly, HEK-293 cells were cotransfected with chimera constructs together with the CRE-SEAP reporter gene construct and a cDNA encoding the M2 muscarinic acetylcholine receptor (M2AchR), a GPCR that couples to Gαo but not to Gαs and inhibits cAMP production. The transfected cells were cultured in the presence or absence of acetylcholine and then assayed for SEAP activity.
A series of chimeric constructs were prepared in which the final 13 C-terminal amino acids of the Gαs subunit were substituted with the final 13 C-terminal amino acids from Gαo, Gαz, Gαt, Gαq, or Gα15 subunits. Also tested were the Gαs-Gαi-13 and a chimera containing the last 5 C-terminal amino acids of Gαk (Gαs-Gαk-5 (SEQ ID NO: 2)). These chimeric constructs were tested for coupling with M2AchR. […] The Gαs-Gαo-13 (SEQ ID NO: […]) and Gαs-Gα15-13 (SEQ ID NO: 7) allowed approximately 2-fold increases in SEAP activity.
(§1) Chimeric G protein cloning: An insert containing rat Gαs cDNA was cut out using the restriction enzymes SaII and HinDIII, and ligated into pcDNA3.1(−) cut with XhoI and HinDIII. The chimeric G proteins with the desired C-terminal amino acid substitutions were prepared by PCR using Gαs as a template. More specifically, Gαs was PCR amplified between an internal EcoRI site and the stop codon, with a 3′ HinDIII placed immediately after the stop codon. A different 3′ oligonucleotide was used for each Gαs chimera and contained a 39 bp sequence that encoded the substituted amino acids at the C-terminus selected from the donor Gα subunit.
M2AchR GPCR cloning: Rat M2AchR receptor was cloned by PCR from cDNA templates (ATCC) and ligated into pcDNA 3.1(−) for expression in mammalian cells.
CRE-SEAP Reporter Gene Assay: 0.5×10^5 HEK-293 cells (ATCC) were seeded into each well of a 96 well plate 24 hours prior to transfection. cDNAs encoding M2AchR, SEAP reporters (Mercury Pathway Profiling System, BD Biosciences), and G protein chimeras were transfected into HEK-293 cells using lipofectamine reagent (Invitrogen) according to the manufacturer's protocols. […]
Following transfection, the cells were maintained for 48 hours in 200 ul serum free media containing 10 uM acetylcholine (Sigma). […] Fluorescence was then measured using a CytoFluor 4000 multi well plate reader (Applied Biosystems).
A general note: A reporter such as luciferase makes a cellular process visible.

In assay [2] the test system is nine GPCRs that do not bind to Gαs (serotonin 1b, neuropeptide Y1, leukotriene B4, dopamine D4, GNRH, UDP, calcium-sensing, T1R2/T1R3). The assay can be described thus: CRE-SEAP reporter gene assay, coupling of chimeric G proteins with a variety of GPCRs. The following applies: HEK-293 cells, GPCR ligand 48 hours.
Text: (§2) The GPCRs examined were those that couple with Gαi/Gαo subunits (serotonin 1b, neuropeptide Y1, leukotriene B4, and dopamine D4), Gαq (GNRH, UDP, and calcium-sensing receptors), and the orphan mammalian sweet taste receptor complex (T1R2 and T1R3) with unknown coupling preference. The Gαs-based chimeric G proteins examined in this example were Gαs-Gαi-5, Gαs-Gαt-13 (SEQ ID NO: 3), Gαs-Gαo-13 (SEQ ID NO: 4), Gαs-Gαi-13 (SEQ ID NO: 5), Gαs-Gαz-6 (SEQ ID NO: 18), Gαs-Gα15-13 (SEQ ID NO: 7), Gαs-Gαk-5 (SEQ ID NO: 2), and Gαs-Gαq-13 (SEQ ID NO: 8). The chimeric G protein constructs were prepared as described herein. For the coupling assay, HEK-293 cells were cotransfected with each of the Gαs-based chimeric G protein constructs of interest together with the CRE-SEAP reporter gene construct and a cDNA encoding the GPCR to be tested. The transfected cells were cultured in the presence or absence of a GPCR ligand and then assayed for SEAP activity.
as §1, with “substitutions from the Gαi, Gαt, Gαo, Gαz, Gα15, Gαk, and Gαq” for “substitutions”
GPCR cloning: Mouse 5-HT1B, mouse dopamine D4, human GNRH, and human neuropeptide Y1 receptors were cloned by PCR from cDNA templates (ATCC) and ligated into pcDNA 3.1(−) (Invitrogen) for expression in mammalian cells. […]
(§3) Following transfection, the cells were maintained for 48 hours in 200 ul serum free media containing GPCR ligand. […] Fluorescence was then measured using a CytoFluor 4000 multi well plate reader (Applied Biosystems).

The target in another assay is T2, dopamine D4 receptor (Mus musculus, UniProt P51436).
T2 construct: expressed in transfected cells; host or cells: HEK-293
T2 sequence (P51436 1-387): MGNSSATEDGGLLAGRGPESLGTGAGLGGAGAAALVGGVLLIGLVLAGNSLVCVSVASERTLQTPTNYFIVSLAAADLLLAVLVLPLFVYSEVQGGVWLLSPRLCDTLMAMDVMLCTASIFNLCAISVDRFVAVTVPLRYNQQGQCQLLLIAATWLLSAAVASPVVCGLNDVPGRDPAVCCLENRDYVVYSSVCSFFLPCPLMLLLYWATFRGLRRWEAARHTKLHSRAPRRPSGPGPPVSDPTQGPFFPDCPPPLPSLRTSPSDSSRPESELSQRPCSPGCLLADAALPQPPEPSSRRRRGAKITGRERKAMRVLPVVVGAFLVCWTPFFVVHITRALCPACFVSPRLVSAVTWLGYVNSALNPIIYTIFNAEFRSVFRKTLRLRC
The assay can be described thus: CRE-SEAP reporter gene assay, coupling with dopamine D4. The note with it: HEK-293 cells, 1 uM dopamine.
Text: as §2
Chimeric G protein cloning: An insert containing rat Gαs cDNA was cut out using the restriction enzymes SaII and HinDIII, and ligated into pcDNA3.1(−) cut with XhoI and HinDIII. […]
as §3

B1: Gαs-Gα15-13: Gαs-based chimeric G protein, final 13 C-terminal amino acids substituted with those of Gα15 (protein)
chain: MGCLGNSKTEDQRNEEKAQREANKKIEKQLQKDKQVYRATHRLLLLGAGESGKSTIVKQMRILHVNGFNGEGGEEDVPDYASNSDGEKATKVQDIKNNLKEAIETIVAAMSNLVPPVELANPENQFRVDYILSVMNVPNFDFPPEFYEHAKALWEDEGVRACYERSNEYQLIDCAQYFLDKIDVIKQADYVPSDQDLLRCRVLTSGIFETKFQVDKVNFHMFDVGGQRDERRKWIQCFNDVTAIIFVVASSSYNMVIREDNQTNRLQEALNLFKSIWNNRWLRTISVILFLNKQDLLAEKVLAGKSKIEDYFPEFARYTTPEDATPEPGEDPRVTRAKYFIRDEFLRISTASGDGRHYCYPHFTCAVDTENIRRVFNDCRDSVLARYLDEINLL
modifications: Chimeric protein
notes: Gαs-based chimeric G protein, final 13 C-terminal amino acids substituted with those of Gα15
B1: in assay [1], the “increase in SEAP activity” value is recorded as “approximately 2 fold”.

B2: Gαs-Gαi-13: Gαs-based chimeric G protein, C-terminal 13 amino acids of Gαs substituted with those of Gαi (protein)
chain: MGCLGNSKTEDQRNEEKAQREANKKIEKQLQKDKQVYRATHRLLLLGAGESGKSTIVKQMRILHVNGFNGEGGEEDVPDYASNSDGEKATKVQDIKNNLKEAIETIVAAMSNLVPPVELANPENQFRVDYILSVMNVPNFDFPPEFYEHAKALWEDEGVRACYERSNEYQLIDCAQYFLDKIDVIKQADYVPSDQDLLRCRVLTSGIFETKFQVDKVNFHMFDVGGQRDERRKWIQCFNDVTAIIFVVASSSYNMVIREDNQTNRLQEALNLFKSIWNNRWLRTISVILFLNKQDLLAEKVLAGKSKIEDYFPEFARYTTPEDATPEPGEDPRVTRAKYFIRDEFLRISTASGDGRHYCYPHFTCAVDTENIRRVFNDCRDVIIKNNLKDCGLF
modifications: Chimeric protein
notes: Gαs-based chimeric G protein, C-terminal 13 amino acids of Gαs substituted with those of Gαi
Take B2: in assay [1] (HEK-293 cells), the “ligand induced increases in SEAP activity mediated by M2AchR (in words)” value is “Particularly effective; also recorded: highest responses”. For the same molecule, the “GPCRs tested that coupled to the chimera” value in assay [2] is “seven of the nine”.

B3: Gαs-Gαz-13: Gαs-based chimeric G protein, final 13 C-terminal amino acids substituted with those of Gαz (protein)
chain: B2 chain with K385Q, D390Y, C391I, F394C
modifications: Chimeric protein
notes: Gαs-based chimeric G protein, final 13 C-terminal amino acids substituted with those of Gαz
For B3, the “increase in SEAP activity” value in assay [1] is recorded as “approximately 2 fold”.

B4: Gαs-Gαo-13: Gαs-based chimeric G protein, final 13 C-terminal amino acids substituted with those of Gαo (protein)
chain: B2 chain with V382I, K385A, K389R, D390G, F394Y
modifications: Chimeric protein
notes: Gαs-based chimeric G protein, final 13 C-terminal amino acids substituted with those of Gαo
On to B4, for which the “GPCRs tested that coupled to the chimera” value in assay [2] is reported as “seven of the nine”. The “coupling with dopamine D4 receptor” value in the assay with dopamine D4 receptor is recorded as “permitted a response”.
